Assay results as given in patent US20060141569A1, “Compositions and methods for the assay of G-protein coupled receptors and their ligands” (priority 2004, published 2006).

Target: human CRF1 receptor (human) (UniProt P34998)
Assay: cell-based or functional assay

Chain of human CRF1 receptor (human) (P34998 24-415): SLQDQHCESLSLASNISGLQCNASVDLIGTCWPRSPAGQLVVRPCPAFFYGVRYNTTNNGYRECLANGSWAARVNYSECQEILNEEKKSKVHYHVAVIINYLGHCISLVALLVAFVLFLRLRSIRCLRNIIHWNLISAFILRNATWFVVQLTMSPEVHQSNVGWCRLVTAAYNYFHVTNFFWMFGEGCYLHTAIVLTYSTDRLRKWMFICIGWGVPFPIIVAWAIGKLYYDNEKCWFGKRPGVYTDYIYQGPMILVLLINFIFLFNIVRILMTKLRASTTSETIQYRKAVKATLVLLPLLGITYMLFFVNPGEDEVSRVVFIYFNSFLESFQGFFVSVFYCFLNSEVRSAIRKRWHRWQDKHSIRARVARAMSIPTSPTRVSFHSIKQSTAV

FLIPR Ca^2+ response EC50, CHEM-1 cells: 12 nM
FLIPR EC50, CRF1/CHEM-1 cells: 10 nM
cAMP response EC50, CHEM-1 cells: 4.9 nM
cAMP response EC50, CHO cells: 8.4 nM
Substance: sauvagine (from UniProt P01144 1-40) (peptide)
